Data on 3 molecules can be found in US20050202009A1 (published 2005).

The labels stand for the following.
B1: melanotransferrin p97(668-683) (peptide)
peptide: GQDLLFKDATVRAVPV
notes: Eluted from HLA-DR of dendritic cells; also called 13

For the experiment, the target named is HLA-DR4 (DRB1*0401) (human). The experiment can be described thus: in vitro peptide competition assay, purified HLA-DR, biotinylated HA(307-319) reporter.
For the molecule B1, the binding result is “binds”.

As to DKARVEVERDNLAEDIM (Eluted from HLA-DR of dendritic cells) [vimentin(167-183)], the binding result was “binds”.

Turning to TLQSFRQDVDNASLAR (Eluted from HLA-DR of dendritic cells) [vimentin(202-217)], the binding result is on record as “binds”.
